Experimental data reported in publication PMC4366370, “Overexpression of a Novel Thermostable and Chloride-Tolerant Laccase from Thermus thermophilus SG0.5JP17-16 in Pichia pastoris and Its Application in Synthetic Dye Decolorization” (PLoS ONE, 2015).

Key:
COc1ccccc1O = test: purified protein; settings: optimal pH 7.5, 90°C
[1] = tested on: COc1cc(C=NN=Cc2cc(OC)c(O)c(OC)c2)cc(OC)c1O; test: purified protein; settings: optimal pH 6.0, 90°C

Substance: LacTT (Thermus thermophilus SG0.5JP17-16)
- Km (COc1ccccc1O): 363.3 ± 29.1 µM
- kcat (COc1ccccc1O): 4.34 ± 0.216 s⁻¹
- kcat/Km (COc1ccccc1O): 12000 ± 1000 M⁻¹ s⁻¹
- Km [1]: 27.0 ± 1.5 µM
- kcat [1]: 1 ± 0.061 s⁻¹
- kcat/Km [1]: 37000 ± 2700 M⁻¹ s⁻¹
